In patent publication US20240336926:
Where two headings read alike, the source gives them in different places.

What was measured:
[1] = test system: K-RAS G12D G12D, P01116-2; details: Nap-dU at all n positions; plate ELISA, buffer SB18, 37 C, R2 97.1
[2] = target: Human serum albumin (HSA) (Homo sapiens) (UniProt P02768); details: Nap-dU at all n positions, plate ELISA, buffer SB18, 37 C

Sequence: GCATAAGTCCGGATGGCAGCTTTATGC [AD008]
- Kd [1]: 287 nM

Sequence: GCATAAGTCCGGATGGCAGCTTTATGCCGACC [AD007]
- Kd ([2]; R2 97.0): 536 nM

Sequence: GACTAGCATAAGTCCGGATGGCAGCTTTATGCCG [AD006]
- Kd ([2]; R2 75.9): 939 nM
